Laboratory results taken from IntAct's records for PubMed 18820298.

B1: CCAAT/enhancer-binding protein beta (Homo sapiens), P17676-2 (parent)
chain: MEVANFYYEADCLAAAYGGKAAPAAPPAARPGPRPPAGELGSIGDHERAIDFSPYLEPLGAPQAPAPATATDTFEAAPPAPAPAPASSGQHHDFLSDLFSDDYGGKNCKKPAEYGYVSLGRLGAAKGALHPGCFAPLHPPPPPPPPPAELKAEPGFEPADCKRKEEAGAPGGGAGMAAGFPYALRAYLGYQAVPSGSSGSLSTSSSSSPPGTPSPADAKAPPTACYAGAAPAPSQVKSKAKKTVDKHSDEYKIRRERNNIAVRKSRDKAKMRNLETQHKVLELTAENERLQKKVEQLSRELSTLRNLFKQLPEPLLASSGHC

Variants of: B1
Conditions: with hdac4_human HDAC4, P56524
hdac4_human HDAC4, P56524, sequence (P56524 whole entry): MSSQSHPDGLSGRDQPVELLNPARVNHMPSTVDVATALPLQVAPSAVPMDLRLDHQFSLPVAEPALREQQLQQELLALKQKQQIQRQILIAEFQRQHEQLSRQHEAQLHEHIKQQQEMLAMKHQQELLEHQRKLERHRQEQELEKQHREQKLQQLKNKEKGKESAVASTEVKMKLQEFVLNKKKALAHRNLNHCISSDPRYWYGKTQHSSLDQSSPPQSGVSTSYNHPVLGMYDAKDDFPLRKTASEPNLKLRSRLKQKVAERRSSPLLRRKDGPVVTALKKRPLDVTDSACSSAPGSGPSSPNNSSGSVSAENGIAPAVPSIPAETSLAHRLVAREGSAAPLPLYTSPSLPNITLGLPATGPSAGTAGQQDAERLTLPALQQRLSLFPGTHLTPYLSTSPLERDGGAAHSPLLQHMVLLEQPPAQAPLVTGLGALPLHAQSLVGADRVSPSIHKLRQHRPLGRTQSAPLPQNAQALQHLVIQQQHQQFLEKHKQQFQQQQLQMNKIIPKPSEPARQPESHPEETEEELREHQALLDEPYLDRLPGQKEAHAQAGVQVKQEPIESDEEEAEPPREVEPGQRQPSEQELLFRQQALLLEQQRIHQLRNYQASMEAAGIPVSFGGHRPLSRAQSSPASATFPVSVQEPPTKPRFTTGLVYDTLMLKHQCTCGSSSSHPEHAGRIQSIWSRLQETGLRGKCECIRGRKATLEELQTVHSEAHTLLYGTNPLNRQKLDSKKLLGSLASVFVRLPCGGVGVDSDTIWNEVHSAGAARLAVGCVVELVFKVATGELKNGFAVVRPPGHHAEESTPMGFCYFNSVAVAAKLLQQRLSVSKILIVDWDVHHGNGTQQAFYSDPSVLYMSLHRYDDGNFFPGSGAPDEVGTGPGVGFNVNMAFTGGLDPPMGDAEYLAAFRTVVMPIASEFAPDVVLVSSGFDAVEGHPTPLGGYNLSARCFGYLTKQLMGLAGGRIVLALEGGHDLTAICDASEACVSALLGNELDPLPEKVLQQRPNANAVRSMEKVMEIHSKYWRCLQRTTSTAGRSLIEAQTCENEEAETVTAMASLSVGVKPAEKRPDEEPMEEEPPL

effect of a mutation on the interaction | Variant
with no effect | K151A
